Laboratory results: publication PMC12350170, “Structural basis for the synergistic assembly of the snRNA export complex” (Nature Structural & Molecular Biology, 2025)

B1: MBP-PHAX103–196 (wild type) [human] / Human nuclear cap-binding complex (CBC): CBP80ΔNLS with CBP20 [human] (parent)
chain 1: SQKPPVAGGKKINNIWGAVLQEQNQDAVATELGILGMEGTIDRSRQSETYNYLLAKKLRKESQEHTKDLDKELDEYMHGGKKMGSKEEENGQGH
chain 2: KTSDANETEDHLESLICKVGEKSACSLESNLEGLAGVLEADLPNYKSKILRLLCTVARLLPEKLTIYTTLVGLLNARNYNFGGEFVEAMIRQLKESLKANNYNEAVYLVRFLSDLVNCHVIAAPSMVAMFENFVSVTQEEDVPQVRRDWYVYAFLSSLPWVGKELYEKKDAEMDRIFANTESYLKRRQKTHVPMLQVWTADKPHPQEEYLDCLWAQIQKLKKDRWQERHILRPYLAFDSILCEALQHNLPPFTPPPHTEDSVYPMPRVIFRMFDYTDDPEGPVMPGSHSVERFVIEENLHCIIKSHWKERKTCAAQLVSYPGKNKIPLNYHIVEVIFAELFQLPAPPHIDVMYTTLLIELCKLQPGSLPQVLAQATEMLYMRLDTMNTTCVDRFINWFSHHLSNFQFRWSWEDWSDCLSQDPESPKPKFVREVLEKCMRLSYHQRILDIVPPTFSALCPANPTCIYKYGDESSNSLPGHSVALCLAVAFKSKATNDEIFSILKDVPNPNQDDDDDEGFSFNPLKIEVFVQTLLHLAAKSFSHSFSALAKFHEVFKTLAESDEGKLHVLRVMFEVWRNHPQMIAVLVDKMIRTQIVDCAAVANWIFSSELSRDFTRLFVWEILHSTIRKMNKHVLKIQKELEEAKEKLARQHKRRSDDDDRSSDRKDGVLEEQIERLQEKVESAQSEQKNLFLVIFQRFIMILTEHLVRCETDGTSVLTPWYKNCIERLQQIFLQHHQIIQQYMVTLENLLFTAELDPHILAVFQQFCALQA
chain 3: MSGGLLKALRSDSYVELSQYRDQHFRGDNEEQEKLLKKSCTLYVGNLSFYTTEEQIYELFSKSGDIKKIIMGLDKMKKTACGFCFVEYYSRADAENAMRYINGTRLDDRIIRTDWDAGFKEGRQYGRGRSGGQVRDEYRQDYDAGRGGYGKLAQNQ

Variants of: B1
Assay: ITC
Settings: CBC pre-bound to the cap analog m7GpppG

| Kd [nM] | Variant |
| --- | --- |
| 1970 | chain 1 SQKPPVAGGKKINNIWGAVLQEQNQDAVATELGILGMEGTIDRSEQSETENELLAKKLRKESQEHTKDLDKELDEYMHGGKKMGSKEEENGQGH [chain 1 R45E Y50E Y52E] |

Same assay, conditions: CBC pre-bound to the cap analog m7GpppG (row 'CBC-m7GpppG + PHAX103–196 (R147E, Y152E, Y154E)')

| Kd [nM] | Variant |
| --- | --- |
| 1970 | chain 1 SQKPPVAGGKKINNIWGAVLQEQNQDAVATELGILGMEGTIDRSEQSETENELLAKKLRKESQEHTKDLDKELDEYMHGGKKMGSKEEENGQGH [chain 1 R45E Y50E Y52E] |
